Here are results for one substance from doi:10.1101/2020.02.26.966614.

The test concerns the target MICAL1-oxidized actin filaments (alpha-skeletal actin, rabbit) (rabbit) (UniProt P68135). The experiment in a line: single-filament microfluidics with fluorescence microscopy.

“eGFP-S3D-cofilin-1 (from UniProt P18760 1-166) (natural protein)” came in with a growth rate of single cofilin-1 domains, normalized by the cofilin concentration of 10 sub/s/µM.
